Data as given in the DeepSol protein solubility set.

assay: soluble on expression in E. coli; label from the status in PepcDB or PDB records

Q: Which “soluble on expression in E. coli” value does the source give for “MELAVHDATEDGAGYATAASSWVVVEPEFVVDVTDIRSFVQCPRLYYLNKLSGLPLKYPVTKGTIVHEVFGDLLRGRDLEASVAQRVDEAGLELGLLGRSRAEVEADVRDNASAIEGWLQQGRLTDEDEWRSEYTLVSERFGIKGRCDAIRRGMPVELKTGKNTNREPRFHDKVQAACYALMLDEHGVPADTGTLLYTKNAAVDRSEASGDLSPAKEFSIGRGFLEFVVRERNHLAALEASDGPPTGYEADAKCDYCFEQDTCMVVSGRLDQESKAGRIGDPVPAEERAYFDELYDAIEAERGAIHDEYRKLWEQSPDERAADDRAVVGLSPAEQTELPDGRWRLTATRPGSAASKIREGDRVLASDGDPVAGRAEMARVERLDADRVEVTTDEPVSLCRLDVYPSELSVDRMLTALHDAVLKSDQRRTDLLFDRASPRFEGGDHDLIPNNDAQNAAVNRALNAEDFALVHGPPGTGKTYTIATLVQAFVARGDRVLVSAFTNRAVDNALDALRQQGHEDIVRVGTETGVRADMQDLRLDRSGDPGERAAALRSAPVVAATTATCGSRILRELEFDVVLVDEASQLTEPDTLAAINRGARFVLVGDHEQLPPVVRSGGRLSKSLFERLHETYPEASVMLDQQYRMSQRIQAFSSREFYDGQLRPASSEVAGQRLTDVGVDPGGAVHGGVTFYDVPGTDDAHVDPAEADRVADVVTAYVDAGLDPGEIGVIAPFRAQVAEIGRRTPAGVAVDTVDRFQGSSKEVIVVSFVARGTLEGPIFEDHRRVNVALSRAKKSLVLVGDERALRSEPLYDRMIDWADMELEHHHHHH” here?
A: The value was “not soluble”.

Q: For “MELDDALDELSDSLGQRQPDPDENKPLDDKVKEKIKAEHSEKLGERDDTIPPEYRHLLDNDGKDKPEKPLTKNTEKPGQDQDPIDALSEDLDSCP”, which “soluble on expression in E. coli” value is on record?
A: Its value is “soluble”.

Q: With “MELGLYTFADVNPNPADGRGPEGARRLRELLEEIELADQVGLDVFGLGEHHRPDYVVSSPSTVLAAAAVKTKNIRLTSAVSVLSSDDPVRVFQQFSTVDLLSNGRAEIMAGRGSFIESYPLFGYDLEDYDVLFAEKLDLLLALREQEVVTWSGTKHPAINGRGVYPRPLQERLPVWIAVGGTPQSVARAGAMGLPVALAIIGGEYRRFAPLFDLYHEAARRAGQEKTKLRTSINVHGFIADTTDKAADQFYGPQAEVMNRIGRERGWGPTNRAHFDAARGPEGNLFLGEPELVAEKIIKAHGVFKNDRFLLQMAIGLMPHDQIMRGIELYGTKVAPLVRKELTGSADPVKATA” as the sequence, how does the “soluble on expression in E. coli” value read?
A: The value was “soluble”.

Q: Which “soluble on expression in E. coli” value does the source give for “MELINKDTLQIKEFISSLDSMLDGIESIVKHYKPHLNGERFLSNNEVSKKLNVSLRTLQEWRDTGLIPFIQIKGKIIYRQSDIDKLLQKHYFEGWKE” here?
A: Its value is “not soluble”.

Q: Which “soluble on expression in E. coli” value does the source give for “MELLPQGQRNNTQVTFEDQQKINEFSKLIMRKDAIAQELSLQREEKEYLDDVSLEIELIDEDEPVQYKVGDLFIFMKQSKVTAQLEKDAERLDNKIETLEDKQRDIDSRLDALKAILYAKFGDNINLER” here?
A: Its value is “not soluble”.

Q: For “MELQQLPQHVRDAFHAPNTPPRQLGVAWDYGWRVGNVAFSQVIHPDRSAWSARVRDKLQPQGLRVVRPLKSTDGRYINAGWRANSFEEGTLARRVDETVVAALRLDTALADIDVPDSFSEPDSHDLFSLADHSAWAPEPMVALGVTSDAEAVFLNPAQLTAQRLLPKIVLLLRDIDAPIQVTHADMFATTIYSGNQMPVVTDLVGVARPYGYTAAVCIVDALLAGAVDEGIIDRFSHIQHRDQLLLRALVYRIAVHALHPESTSNTGTNLEWVSQTIMSRASVTL”, which “soluble on expression in E. coli” value is on record?
A: The value was “soluble”.

Q: With “MELRVGNRYRLGRKIGSGSFGDIYLGTDIAAGEEVAIKLECVKTKHPQLHIESKIYKMMQGGVGIPTIRWCGAEGDYNVMVMELLGPSLEDLFNFCSRKFSLKTVLLLADQMISRIEYIHSKNFIHRDVKPDNFLMGLGKKGNLVYIIDFGLAKKYRDARTHQHIPYRENKNLTGTARYASINTHLGIEQSRRDDLESLGYVLMYFNLGSLPWQGLKAATKRQKYERISEKKMSTPIEVLCKGYPSEFATYLNFCRSLRFDDKPDYSYLRQLFRNLFHRQGFSYDYVFDWNMLKFGASRAADDAERERRDREERLRHSRNPATRGLPSTASGRLRGTQEVAPPTPLTPTSHTANTSPRPVSGMERERKVSMRLHRGAPVNISSSDLTGRQDTSRMSTSQIPGRVASSGLQSVVHR” as the sequence, how does the “soluble on expression in E. coli” value read?
A: Its value is “not soluble”.

Q: For “MELSRGASAPDPDDVRPLKPCLLRRNHSRDQHGVAASSLEELRSKACELLAIDKSLTPITLVLAEDGTIVDDDDYFLCLPSNTKFVALACNEKWTYNDSDGGTAWVSQESFEADEPDSRAGVKWKNVARQLKEDLSSIILLSEEDLQALIDIPCAELAQELCQSCATVQGLQSTLQQVLDQREEARQSKQLLELYLQALEKEGNILSNQKESKAALSEELDAVDTGVGREMASEVLLRSQILTTLKEKPAPELSLSSQDLESVSKEDPKALAVALSWDIRKAETVQQACTTELALRLQQVQSLHSLRNLSARRSPLPGEPQRPKRAKRDSS”, which “soluble on expression in E. coli” value is on record?
A: The value was “soluble”.

Q: With “MELVHGISTHFIQSKKFKTNKITVRFTAPLSLDTIAGHMLSASMLETANQMYPTSQDLRRHLASLYGTDMSTNCFRRGQSHIIELTFTYVRDEFLSRKNVLTSQILELVKETLFSPVVVDNGFDPALFEIEKKQLLASLAADMDDSFYFAHKELDKLFFHDERLQLEYSDLRNRILAETPQSSYSCFQEFLANDRIDFFFLGDFNEVEIQNVLESFGFKGRKGDVKVQYCQPYSNILQEGMVRKNVGQSILELGYHYCSKYGDEQHLPMIVMNGLLGGFAHSKLFTNVRENAGLAYTISSELDLFSGFLRMYAGINRENRNQARKMMNNQLLDLKKGYFTEFELNQTKEMIRWSLLLSQDNQSSLIERAYQNALFGKSSADFKSWIAKLEQIDKDAICRVANNVKLQAIYFMEGIE” as the sequence, how does the “soluble on expression in E. coli” value read?
A: The value was “not soluble”.

Q: Which “soluble on expression in E. coli” value does the source give for “MELYDTEEQQVEAIKDWWKENGKAVIFGAVIGLGGLFGWRYYQDSVVAAQEAASQSYSKAMDALQAKGIESEGTIQTFIDANKETEYAVLAAMQLAKAQVDAGQLDEALAQLEWAKGATKDAALKPLLTFRVARLQAEQGQFDDALTQLTSIQEKSWAGRVAELRGDILMRKGDSAAAYAAYTEAQQAEDASQTLQMKLDDLAK” here?
A: Its value is “not soluble”.

Q: With “MENKEKIFNAQHPLSNVNARSITYRSGGKSPKSPRRVDEENKTDEELGDALGISHRCDECDEMMKFETWVERQDAILECGHGYCKKCIPNIKKDAHTLTKCPVVAVKCRIPNWYQTGQAAKPSHRKSEAARKEYSTKAKLWNFEYKGRPLVVSLRRDATYGDLETSLSMLLNIDLKTNMILIHLPHSYNGADVNYFMKADDSLTNGPYEKDTKLSHLRHPKIAALSLEVTEKKTPSSETPSKENPKSPGPLDSNK” as the sequence, how does the “soluble on expression in E. coli” value read?
A: Its value is “not soluble”.

Q: Which “soluble on expression in E. coli” value does the source give for “MENLKKYLEVAKIAALAGGQVLKENFGKVKKENIEEKGEKDFVSYVDKTSEERIKEVILKFFPDHEVVGEEMGAEGSGSEYRWFIDPLDGTKNYINGFPIFAVSVGLVKGEEPIVGAVYLPYFDKLYWGAKGLGAYVNGKRIKVKDNESLKHAGVVYGFPSRSRRDISIYLNIFKDVFYEVGSMRRPGAAAVDLCMVAEGIFDGMMEFEMKPWDITAGLVILKEAGGVYTLVGEPFGVSDIIAGNKALHDFILQVAKKYMEVAV” here?
A: The value was “soluble”.

Q: For “MENMIVIMAGGRSSRMGAEKPILKVNGKPMILRVYEESTKVGETLVAISKNTPKTRELCIKEGIPLIETPGEGYVEDVRYLLKELGSFVSVSADLPFVKACDIAEVKKAFDGKTSLTGVLPLSKVPTDLRPVVYKGYVIVGLNGVGFEGEKFYELSNPLLALNVNTPEELKLANRIAKLIGLEHHHHHH”, which “soluble on expression in E. coli” value is on record?
A: The value was “not soluble”.

Q: Which “soluble on expression in E. coli” value does the source give for “MENRYSVHPEQVKRFTTEELRSHFLMDSLFTENKLTMYYSHEDRVVIGGAAPGQSELKLDAGDFLKTDFFLERREIGIINVGQPGAVRVGDDEYVLQTKDFLYIGMGNQDVSFSSLNGEKAKFYFVSACAHKSYPTQKAALSELTPDRLGDDAASNVRSLYKVIHQDGIKSCQLMMGITMLDQNNNWNTMPAHVHDRRMEAYLYLDLEKDSKVFHFMGQPDETRHLVVGNEQAVLSPAWSIHSGAGTSNYSFVWAMAGENYTFTDMDLIPMDGLK” here?
A: The value was “not soluble”.

Q: For “MENWYPCIICGIARYGHDVIATPRLTSDARVNQWLNLIGKPALNRILATNKNPTLNTFICIEHFEPEELIEPKKRRMKPIKTTRREMAIYENYFRDHGYFETQKSDVNRKKSMKLTSISCSQCSESVERDGKFAKIDMVDHAKLHMELGDCRCEKHKKIERIDRIDGENSDFQCSECAFILNAELEAVKEKAEFCFPMFQFEKSKFSNSTLEPRMKPEYIESRPFWNSEEYDPVFLDSDVKFDLIEDFEPPEPEPEPEQVDTELVKLEPIDGDYEHMEGCFSGFEQEESEQPSTSSAPRKLVQQRDRLLENLYQSNRHPSMEDINSLLDFSGDQRSIEAIFGFFERRRNDDNEMCTGDDACSSLRRYLEMELHPHGPLLEPPEIRCRMIKMFEKHWAKYRYVFRDLHSYMFSDALGLPPKYIRQRFEHFKERKNQQQKKQQEEADRAFRERHKPPKPHKPKPKSQYSKFEDETMEKAYMRTVKMNPSSYESRDLLESISISLRMSLIKVHEWFNNRKFVDSIIDQTWRTFSVNDEKRLHSTFLQNPQPTDEQYCYLAKELRAPVKEVMNWFKLKQMNEEREEEALKFEYKLDALTQESIDLFTTIVDGTTVVSVAKRRLLALELDVPYETLGRWIFYYRNREEKSRKSPKLEDDDDPPPRLAKMPRLEMNEPDNEEDIKLEPLDS”, which “soluble on expression in E. coli” value is on record?
A: Its value is “not soluble”.

Q: With “MEPGTYELRGTVHDETFNTTVWTPYNFEGFYYSIDENVSTESLTLTEEISGRSIDDEALVYSTSPALVKFEQESWGSYQVIGFMAEKYFAGYPANTFGNSRSVSVLSDDILAKVLIDDDHKRSMFTGSSIALENGYSLKAAEVDVNGNRVLLELYRDGELVDSGITSSNGDYIYEADIGGAEDVPMIAAHISTVFRSRETDAVFIEGIFQVSDDYLELSQGDSFGKMEISTISSSGITMKNEDSISLSRGNTISLMGNVSFKVADSNVLRFYPFVEVKSAPQDQLRIETPDVFVVGEAAEISVTARDAAVSDVEIRLGNQSIGTTGDDGILAYTPTLEGDFTLYANKAGYLSGSKDVDIVLEHHHHHH” as the sequence, how does the “soluble on expression in E. coli” value read?
A: The value was “soluble”.

Q: For “MEPPLILIVEDEKDIARFIELELQAEGYRTEVAHDGITGLSKFREVSPNLVILDLMLPVMDGIEVAKRIRKTSNVPILILTAKDRVEDKVAGLDAGADDYLVKPFSIEELLARVRAHLRRVTPAITGEIRVADLIINLEGREVFRGNRRIELSNKEFELLELLAKNPGKVFSRYEIEEKVWPGYQGGSNVVDVYIGYLRKKLEAGGERRLIHTVRGVGYVLRED”, which “soluble on expression in E. coli” value is on record?
A: The value was “soluble”.

Q: Which “soluble on expression in E. coli” value does the source give for “MEPSGGEQEPGAVRFLDLPWEDVLLPHVLNRVPLRQLLRLQRVSRAFRSLVQLHLAGLRRFDAAQVGPQIPRAALARLLRDAEGLQELALAPCHEWLSDEDLVPVLARNPQLRSVALGGCGQLSRRALGALAEGCPRLQRLSLAHCDWVDGLALRGLADRCPALEELDLTACRQLKDEAIVYLAQRRGAGLRSLSLAVNANVGDAAVQELARNCPELHHLDLTGCLRVGSDGVRTLAEYCPVLRSLRVRHCHHVAESSLSRLRKRGVDIDVEPPLHQALVLLQDMAGFAPFVNLQV” here?
A: The value was “soluble”.

Q: Which “soluble on expression in E. coli” value does the source give for “MEQLLERIFDELAFLRANMATKDDVAALKDDIRALESRASHIEQTMATKDDIAAMDKRIGQIEQTMATKDDIASIEQRMATKDDVADIPFIKQAVMETLETINEIPAIKQTLAEALRKLDDVIASQARQELVLQSLAFRSLEQENEIRALKAK” here?
A: The value was “not soluble”.

Q: For “MEQLRAAARLQIVLGHLGRPSAGAVVAHPTSGTISSASFHPQQFQYTLDNNVLTLEQRKFYEENGFLVIKNLVPDADIQRFRNEFEKICRKEVKPLGLTVMRDVTISKSEYAPSEKMITKVQDFQEDKELFRYCTLPEILKYVECFTGPNIMAMHTMLINKPPDSGKKTSRHPLHQDLHYFPFRPSDLIVCAWTAMEHISRNNGCLVVLPGTHKGSLKPHDYPKWEGGVNKMFHGIQDYEENKARVHLVMEKGDTVFFHPLLIHGSGQNKTQGFRKAISCHFASADCHYIDVKGTSQENIEKEVVGIAHKFFGAENSVNLKDIWMFRARLVKGERTNL”, which “soluble on expression in E. coli” value is on record?
A: The value was “not soluble”.
